Literature values as cited in paper PMC6721559.

Molecular target: Ubc9 (Homo sapiens) (UniProt P63279)
Chain of UniProt P63279 (P63279 2-158): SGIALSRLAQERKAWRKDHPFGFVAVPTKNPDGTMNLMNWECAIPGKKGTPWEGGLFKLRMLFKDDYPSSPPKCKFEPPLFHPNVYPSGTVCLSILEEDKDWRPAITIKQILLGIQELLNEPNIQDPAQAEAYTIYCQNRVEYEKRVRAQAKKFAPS

For SUMO (from UniProt P63165), the Kd is listed as 0.082 µM.
